Among the data in patent US20230303695A1 (SHANGHAI XBH BIOTECHNOLOGY, published 2023) are Kd, koff and kon values, retold here.

The target of this assay is T1, recombinant human IGSF8 extracellular domain tagged by a human Fc region (IGSF8-hFc) (human, UniProt Q969P0 28-579, biotin label in Examples 17, 18 and 28 (site not given)).
T1 construct: also called IGSF8-Fc fusion protein; IGSF8-hFc-biotin; not shown: human Fc region
T1 sequence: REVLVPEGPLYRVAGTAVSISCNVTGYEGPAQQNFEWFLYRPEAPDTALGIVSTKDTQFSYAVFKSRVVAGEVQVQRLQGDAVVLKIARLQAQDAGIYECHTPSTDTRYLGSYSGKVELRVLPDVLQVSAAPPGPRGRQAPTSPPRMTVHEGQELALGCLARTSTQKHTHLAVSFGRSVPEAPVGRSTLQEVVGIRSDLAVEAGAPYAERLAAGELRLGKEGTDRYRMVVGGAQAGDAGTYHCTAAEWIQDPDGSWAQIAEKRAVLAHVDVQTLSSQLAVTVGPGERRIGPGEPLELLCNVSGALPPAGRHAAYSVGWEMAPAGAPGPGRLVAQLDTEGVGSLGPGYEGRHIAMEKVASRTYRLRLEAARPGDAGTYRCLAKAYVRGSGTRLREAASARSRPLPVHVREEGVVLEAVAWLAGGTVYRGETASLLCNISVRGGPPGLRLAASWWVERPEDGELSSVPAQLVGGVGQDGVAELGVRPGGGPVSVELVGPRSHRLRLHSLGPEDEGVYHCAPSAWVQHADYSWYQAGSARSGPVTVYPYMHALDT
Kind of assay: SPR, Ab captured. The protocol: The binding affinities of the L1 and L2 antibodies to IGSF8 recombinant protein were determined by surface plasmon resonance (SPR). Briefly, anti-human Fab antibody was imobilized on acarboxyl-derivatized SPR chip surface, and the antibodies were captured on the resulting surface at 5 μg/ml for 30 seconds.
In general terms: SPR reads the build-up and loss of mass on a sensor chip optically.

B1: L2-08 (antibody, V domains shown)
VH: EVQLVESGGGLEQPGGSLRLSCAASGFTFRDYAMTWVRQAPGKGLEWVSSISGSGGSTYYADSVKGRFTISRDNSKNTLYLQMNSLRAEDTAIYYCARGEYSSGWPSWFDPWGQGTLVTVSS
VL: DIQMTQSPSSLSASVGDRVTITCRASRTVGTFLNWYQQKPGKAPKALILGVSILEGGVPSRFSGSGSGTDFTLTISSLQPEDIATYYCQQSHDVPRTFGQGTKVEIK
In general, Kd refers to a measure of binding affinity in units of concentration. Broadly, the koff is a measure of how fast the partners let go of each other. By kon is commonly meant the second-order rate constant of association. With B1, the Kd was 0.869 nM, the off-rate (koff) amounted to 0.000112 s⁻¹ and the kon worked out at 129000 M⁻¹ s⁻¹.

B2: L2-09 (antibody, V domains shown)
VH: EVQLVESGGGLEQPGGSLRLSCAASGFTFRDYAMTWVRQAPGKGLEWVSSISGSGGSTYYADSVKGRFTISRDNSKNTLYLQMNSLRAEDTAIYYCARGEYSSGWPSWFDPWGQGTLVTVSS
VL: DIQMTQSPSSLSASVGDRVTITCRASRTVGTFLNWYQQKPGKAPKALILHTSILEGGVPSRFSGSGSGTDFTLTISSLQPEDIGTYYCQQSHDVPRTFGQGTKVEIK
B2: the Kd was 0.475 nM, the koff was 7.15e-05 s⁻¹ and the kon was 151000 M⁻¹ s⁻¹.

B3: L2VH-R30S (antibody, V domains shown)
VH: EVQLVESGGGLEQPGGSLRLSCAGSGFTFSDYAMTWVRQAPGKGLEWVSSISGSGGNTYYADSVKGRFTISRDNSKNTLYLQMNSLRAEDTAIYYCARGEYSSGWPSWFDPWGQGTLVTVSS
VL: EIVLTQSPSSLSASVGDRVTISCRASRTVGTFLNWYQQRPGKPPQALILGVSILEGGVSSRFSGAGSGTEFSLTISSLQPEDIGTYYCQQSHDVPRTFGQGTKVDLR
As to B3, the Kd came to 146 nM, the koff was determined as 0.00165 s⁻¹ and the kon amounted to 11400 M⁻¹ s⁻¹.

B4: L2VH-S50A (antibody, V domains shown)
VH: EVQLVESGGGLEQPGGSLRLSCAGSGFTFRDYAMTWVRQAPGKGLEWVSAISGSGGNTYYADSVKGRFTISRDNSKNTLYLQMNSLRAEDTAIYYCARGEYSSGWPSWFDPWGQGTLVTVSS
VL: EIVLTQSPSSLSASVGDRVTISCRASRTVGTFLNWYQQRPGKPPQALILGVSILEGGVSSRFSGAGSGTEFSLTISSLQPEDIGTYYCQQSHDVPRTFGQGTKVDLR
On to B4, for which the Kd was 23.7 nM, the koff came to 0.000486 s⁻¹ and the kon stood at 20500 M⁻¹ s⁻¹.

B5: L2-07 (antibody, V domains shown)
VH: EVQLVESGGGLEQPGGSLRLSCAASGFTFRDYAMTWVRQAPGKGLEWVSSISGSGGSTYYADSVKGRFTISRDNSKNTLYLQMNSLRAEDTAIYYCARGEYSSGWPSWFDPWGQGTLVTVSS
VL: DIQMTQSPSSLSASVGDRVTITCRASRTVGTFLNWYQQKPGKAPKALILGVSILEGGVPSRFSGSGSGTDFTLTISSLQPEDIGTYYCQQSHDVPRTFGQGTKVEIK
In the case of B5, the Kd came to 1.16 nM, the koff was determined as 0.000129 s⁻¹ and the kon stood at 111000 M⁻¹ s⁻¹.

B6: L2VH-T35S (antibody, V domains shown)
VH: EVQLVESGGGLEQPGGSLRLSCAGSGFTFRDYAMSWVRQAPGKGLEWVSSISGSGGNTYYADSVKGRFTISRDNSKNTLYLQMNSLRAEDTAIYYCARGEYSSGWPSWFDPWGQGTLVTVSS
VL: EIVLTQSPSSLSASVGDRVTISCRASRTVGTFLNWYQQRPGKPPQALILGVSILEGGVSSRFSGAGSGTEFSLTISSLQPEDIGTYYCQQSHDVPRTFGQGTKVDLR
In the case of B6, the Kd came to 22.8 nM, the koff was 0.00139 s⁻¹ and the kon was 61100 M⁻¹ s⁻¹.

B7: L2-03 (antibody, V domains shown)
VH: EVQLVESGGGLEQPGGSLRLSCAGSGFTFRDYAMTWVRQAPGKGLEWVSSISGSGGSTYYADSVKGRFTISRDNSKNTLYLQMNSLRAEDTAIYYCARGEYSSGWPSWFDPWGQGTLVTVSS
VL: EIVLTQSPSSLSASVGDRVTISCRASRTVGTFLNWYQQRPGKPPQALILGVSILEGGVSSRFSGAGSGTEFSLTISSLQPEDIGTYYCQQSHDVPRTFGQGTKVDLR
Take B7: the Kd stood at 3.27 nM, the koff worked out at 0.000465 s⁻¹ and the kon was 142000 M⁻¹ s⁻¹.

B8: L2-06 (antibody, V domains shown)
VH: EVQLVESGGGLEQPGGSLRLSCAASGFTFRDYAMTWVRQAPGKGLEWVSSISGSGGSTYYADSVKGRFTISRDNSKNTLYLQMNSLRAEDTAIYYCARGEYSSGWPSWFDPWGQGTLVTVSS
VL: DIQMTQSPSSLSASVGDRVTITCRASRTVGTFLNWYQQKPGKAPKALILGVSILEGGVPSRFSGSGSGTDFTLTISSLQLEDFATYYCQQSHDVPRTFGQGTKVEIK
Consider B8, for which the equilibrium dissociation constant (Kd) was found to be 5.45 nM, the koff is 0.000249 s⁻¹ and the kon is 45700 M⁻¹ s⁻¹.

B9: L2-02 (antibody, V domains shown)
VH: EVQLVESGGGLEQPGGSLRLSCAGSGFTFRDYAMTWVRQAPGKGLEWVSSISGSGGNTYYADSVKGRFTISRDNSKNTLYLQMNSLRAEDTAIYYCARGEYSSGWPSWFDPWGQGTLVTVSS
VL: EIVLTQSPSSLSASVGDRVTISCRASRTVGTFLNWYQQRPGKPPQALILHTSILEGGVSSRFSGAGSGTEFSLTISSLQPEDIGTYYCQQSHDVPRTFGQGTKVDLR
As to B9, the Kd stood at 4.85 nM, the koff came out at 0.000131 s⁻¹ and the on-rate constant (kon) was 27100 M⁻¹ s⁻¹.

B10: L2VH-D31S (antibody, V domains shown)
VH: EVQLVESGGGLEQPGGSLRLSCAGSGFTFRSYAMTWVRQAPGKGLEWVSSISGSGGNTYYADSVKGRFTISRDNSKNTLYLQMNSLRAEDTAIYYCARGEYSSGWPSWFDPWGQGTLVTVSS
VL: EIVLTQSPSSLSASVGDRVTISCRASRTVGTFLNWYQQRPGKPPQALILGVSILEGGVSSRFSGAGSGTEFSLTISSLQPEDIGTYYCQQSHDVPRTFGQGTKVDLR
For B10, the Kd was determined as 465 nM, the off-rate (koff) worked out at 0.00567 s⁻¹ and the kon worked out at 12200 M⁻¹ s⁻¹.

B11: L2VL-I53S (antibody, V domains shown)
VH: EVQLVESGGGLEQPGGSLRLSCAGSGFTFRDYAMTWVRQAPGKGLEWVSSISGSGGNTYYADSVKGRFTISRDNSKNTLYLQMNSLRAEDTAIYYCARGEYSSGWPSWFDPWGQGTLVTVSS
VL: EIVLTQSPSSLSASVGDRVTISCRASRTVGTFLNWYQQRPGKPPQALILGVSSLEGGVSSRFSGAGSGTEFSLTISSLQPEDIGTYYCQQSHDVPRTFGQGTKVDLR
Consider B11, for which the Kd came to 1280 nM, the koff was 0.00173 s⁻¹ and the kon is 1350 M⁻¹ s⁻¹.

B12: L2-04 (antibody, V domains shown)
VH: EVQLVESGGGLEQPGGSLRLSCAASGFTFRDYAMTWVRQAPGKGLEWVSSISGSGGSTYYADSVKGRFTISRDNSKNTLYLQMNSLRAEDTAIYYCARGEYSSGWPSWFDPWGQGTLVTVSS
VL: EIVLTQSPSSLSASVGDRVTISCRASRTVGTFLNWYQQRPGKPPQALILGVSILEGGVSSRFSGAGSGTEFSLTISSLQPEDIGTYYCQQSHDVPRTFGQGTKVDLR
Regarding B12, the Kd came to 2.98 nM, the koff came out at 0.000142 s⁻¹ and the kon was found to be 47600 M⁻¹ s⁻¹.

B13: L2VL-D93S (antibody, V domains shown)
VH: EVQLVESGGGLEQPGGSLRLSCAGSGFTFRDYAMTWVRQAPGKGLEWVSSISGSGGNTYYADSVKGRFTISRDNSKNTLYLQMNSLRAEDTAIYYCARGEYSSGWPSWFDPWGQGTLVTVSS
VL: EIVLTQSPSSLSASVGDRVTISCRASRTVGTFLNWYQQRPGKPPQALILGVSILEGGVSSRFSGAGSGTEFSLTISSLQPEDIGTYYCQQSHSVPRTFGQGTKVDLR
Regarding B13, the Kd amounted to 68 nM, the koff stood at 0.00202 s⁻¹ and the kon worked out at 29700 M⁻¹ s⁻¹.

B14: L2VL-G56S (antibody, V domains shown)
VH: EVQLVESGGGLEQPGGSLRLSCAGSGFTFRDYAMTWVRQAPGKGLEWVSSISGSGGNTYYADSVKGRFTISRDNSKNTLYLQMNSLRAEDTAIYYCARGEYSSGWPSWFDPWGQGTLVTVSS
VL: EIVLTQSPSSLSASVGDRVTISCRASRTVGTFLNWYQQRPGKPPQALILGVSILESGVSSRFSGAGSGTEFSLTISSLQPEDIGTYYCQQSHDVPRTFGQGTKVDLR
For the molecule B14, the Kd is 29.1 nM, the koff is 0.00311 s⁻¹ and the kon turned out to be 107000 M⁻¹ s⁻¹.

B15: L2-05 (antibody, V domains shown)
VH: EVQLVESGGGLEQPGGSLRLSCAASGFTFRDYAMTWVRQAPGKGLEWVSAISGSGGSTYYADSVKGRFTISRDNSKNTLYLQMNSLRAEDTAIYYCARGEYSSGWPSWFDPWGQGTLVTVSS
VL: EIVLTQSPSSLSASVGDRVTISCRASRTVGTFLNWYQQRPGKPPQALILGVSILEGGVSSRFSGAGSGTEFSLTISSLQPEDIGTYYCQQSHDVPRTFGQGTKVDLR
Turning to B15, the Kd came out at 2.63 nM, the koff came out at 0.000112 s⁻¹ and the kon amounted to 42700 M⁻¹ s⁻¹.

B16: L2VH-R98K (antibody, V domains shown)
VH: EVQLVESGGGLEQPGGSLRLSCAGSGFTFRDYAMTWVRQAPGKGLEWVSSISGSGGNTYYADSVKGRFTISRDNSKNTLYLQMNSLRAEDTAIYYCAKGEYSSGWPSWFDPWGQGTLVTVSS
VL: EIVLTQSPSSLSASVGDRVTISCRASRTVGTFLNWYQQRPGKPPQALILGVSILEGGVSSRFSGAGSGTEFSLTISSLQPEDIGTYYCQQSHDVPRTFGQGTKVDLR
As for B16, the Kd is 48.7 nM, the off-rate (koff) was determined as 0.00248 s⁻¹ and the kon was determined as 51000 M⁻¹ s⁻¹.
